Data taken from the supplement of paper PMC9732359.
± gives the uncertainty stated by the source.

Assay: protein stability index of a GFP-peptide fusion (yeast GPS) (PSI 1-4); higher = more stable; sorted into four equal gates, so the index is relative within each strain
Outline: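 Tiled 17-residue yeast protein peptides were fused downstream of GFP in a plasmid that also expresses Cherry, and the pooled library was carried in yeast. Mid-log cultures in leucine-free medium were sorted into four equal gates by GFP/Cherry fluorescence ratio, and plasmids from each gate were PCR-amplified and Illumina-sequenced, with reads assigned to strains by barcodes. The protein stability index for each peptide was each gate's read frequency times its gate number, summed.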

| Sequence | protein stability index (doa10∆) | protein stability index (pdr5∆) | protein stability index (san1∆) | protein stability index (ubr1∆) |
| --- | --- | --- | --- | --- |
| TQEIRPVNTGVLHVSAK [RRP40] | 2.72 ± 0.12 | 2.91 ± 0.1 | 2.74 ± 0.081 | 3.01 ± 0.11 |
| FKGALTIKILPENTAMF [YMR129W/POM152] | 2.32 ± 0.083 | 2.14 ± 0.052 | 2.33 ± 0.056 | 2.25 ± 0.05 |
| SYLETLTALGKEKEKER [MED2] | 2.57 ± 0.16 | 1.93 ± 0.12 | 2.34 ± 0.17 | 2.92 ± 0.057 |
| WLAEKFQKETNMKVTIL [PRP28] | 2.81 ± 0.18 | 3.17 ± 0.11 | 3.27 ± 0.25 | 2.79 ± 0.11 |
| NDVTNKNINIGKHSQEQ [SIR4] | 2.26 ± 0.052 | 2.46 ± 0.047 | 2.81 ± 0.045 | 2.5 ± 0.041 |
| MAESHRLYVKGKHLSYQ [RPL33A] | 2.71 ± 0.077 | 2.84 ± 0.068 | 2.52 ± 0.073 | 2.62 ± 0.058 |
| SPQKFETNLQTFLPPLL [ECM29] | 3.01 ± 0.071 | 2.95 ± 0.06 | 3.2 ± 0.04 | 2.92 ± 0.049 |
| SKDELREKLAEVYKAEK [RPS24A] | 3.51 ± 0.16 | 3.48 ± 0.15 | 3.59 ± 0.08 | 3.56 ± 0.16 |
| TVSRAYGGSRCANCVKE [RPL34A] | 2.4 ± 0.071 | 2.96 ± 0.068 | 2.43 ± 0.1 | 2.19 ± 0.043 |
| YVESDEDDTQIVTGNLV [IRR1] | 3.47 ± 0.15 | 3.47 ± 0.12 | 3.08 ± 0.08 | 3.26 ± 0.076 |
| DSNTTEILTSVDVLGTH [SIR4] | 2.92 ± 0.063 | 2.96 ± 0.058 | 2.93 ± 0.06 | 3.04 ± 0.036 |
| IGVETGSEPLIQQVVEY [PRP28] | 2.99 ± 0.065 | 3.08 ± 0.084 | 2.95 ± 0.067 | 2.73 ± 0.16 |
| GVAHLLNRFNFQNTNTR [QCR2] | 2.69 ± 0.084 | 2.58 ± 0.086 | 2.43 ± 0.15 | 2.5 ± 0.062 |
| LLVKFIKFFWNNTHVGR [YLR018C/POM34] | 2.97 ± 0.22 | 2.48 ± 0.085 | 2.51 ± 0.085 | 2.66 ± 0.095 |
| KDNARIYQVPEKDLEHW [POP1] | – | – | 2.26 ± 0.23 | – |
| NVEEEQIVPYIEKLTDG [BRR2] | 3.05 ± 0.061 | 3.06 ± 0.06 | 2.91 ± 0.071 | 3.2 ± 0.061 |
| FFAAIRFVLSDDYSNLK [SMC3] | 2.27 ± 0.091 | 2.68 ± 0.13 | 2.56 ± 0.1 | 2.7 ± 0.07 |
| TSKTVSNQFKRSLATAV [COR1] | 2.47 ± 0.11 | 2.32 ± 0.075 | 2.34 ± 0.092 | 1.8 ± 0.056 |
| VGDFLLQYANNAVISHA [SIN4] | 1.99 ± 0.074 | 1.79 ± 0.05 | 1.82 ± 0.074 | 1.49 ± 0.035 |
| YGITHGLTNWAAAYATG [RPL5] | 2.17 ± 0.086 | 2.43 ± 0.067 | 2.28 ± 0.09 | 2.26 ± 0.056 |
| TKEELESDGRMFIEEPT [SRP54] | 2.58 ± 0.091 | 3.11 ± 0.14 | 2.96 ± 0.099 | 2.71 ± 0.055 |
| VKAAINFSNVTDLTNNS [YIL149C/MLP2] | 2.49 ± 0.044 | 3.11 ± 0.049 | 3.35 ± 0.04 | 2.62 ± 0.04 |
| SGTYHLNCGNGMGIGFI [POP1] | 3.07 ± 0.077 | 2.93 ± 0.063 | 2.44 ± 0.077 | 3.11 ± 0.041 |
| DEDLLDTQTFSVLLQQL [YGL172W/NUP49] | 2.93 ± 0.059 | 2.81 ± 0.063 | 1.72 ± 0.11 | 2.57 ± 0.045 |
| KTAPIQESFVPNSERSG [YOR098C/NUP1] | 2.27 ± 0.24 | 2.42 ± 0.11 | 1.4 ± 0.26 | 3.03 ± 0.081 |
| TQEEVELPLEDFKAKYC [RPB5] | 3.33 ± 0.11 | 3.25 ± 0.11 | 3.58 ± 0.11 | 3.28 ± 0.071 |

| Sequence | protein stability index (doa10∆) | protein stability index (pdr5∆) | protein stability index (san1∆) | protein stability index (ubr1∆) |
| --- | --- | --- | --- | --- |
| MPPKFDPNEVKYLYLRA [RPL12A] | 2 ± 0.093 | 2.09 ± 0.17 | 2.98 ± 0.2 | 1.78 ± 0.079 |
| NLLIQRLNFNQNSSKIV [SWI3] | 2.71 ± 0.053 | 2.81 ± 0.051 | 3.06 ± 0.038 | 2.93 ± 0.041 |
| KRSQKKHKKKHLKHENA [RPB4] | 3.03 ± 0.044 | 2.96 ± 0.052 | 3.09 ± 0.037 | 3.25 ± 0.043 |
| MDIMEDFLRYINIKYLR [SNF2] | 1.54 ± 0.039 | 1.37 ± 0.044 | 1.37 ± 0.12 | 1.3 ± 0.036 |
| APLNFNPIIENNVDNKY [SSN2] | 2.69 ± 0.052 | 2.97 ± 0.049 | 2.79 ± 0.046 | 2.88 ± 0.046 |
| YDRKKLPRKEVDDVLGG [RPC11] | 3.2 ± 0.1 | 3.64 ± 0.14 | 3.29 ± 0.065 | 3.32 ± 0.099 |
| TEDILKEISTRVFNAKD [YCS4] | 3.11 ± 0.13 | 3.17 ± 0.095 | 3.25 ± 0.095 | 3.29 ± 0.092 |
| IKKPKTYKYPSLKGVDP [RPL29] | 3.63 ± 0.29 | 3.62 ± 0.2 | – | – |
| ICQIISSTITGDVVLAA [RPL5] | 2.84 ± 0.063 | 1.89 ± 0.058 | 2.31 ± 0.069 | 3.06 ± 0.099 |
| YKLTNDEEGIFSRFVDQ [YCG1] | 2.94 ± 0.12 | 2.83 ± 0.13 | 3 ± 0.085 | 2.94 ± 0.057 |
| ITLRGVENIERVVMMKY [RPO21] | 2.22 ± 0.12 | 2.28 ± 0.096 | 1.23 ± 0.16 | 2.19 ± 0.076 |
| VSFNSKQNEQLHVEQLS [SMC3] | 2.27 ± 0.071 | 2.72 ± 0.087 | 2.47 ± 0.1 | 2.85 ± 0.066 |
| IHQYLFQEGVVVAKKDF [RPS10A] | 2.29 ± 0.068 | 2.08 ± 0.071 | 1.93 ± 0.089 | 2.04 ± 0.085 |
| QAYEEIISSNENALIEL [YIL149C/MLP2] | 3.18 ± 0.064 | 3.07 ± 0.061 | 2.92 ± 0.071 | 3.23 ± 0.042 |
| LHPQLHEVQYQESSSTL [SIN4] | 2.28 ± 0.049 | 2.5 ± 0.041 | 2.41 ± 0.07 | 2.3 ± 0.035 |
| ITSLQDSSSQCIVDFTN [YMR129W/POM152] | 2.67 ± 0.067 | 2.92 ± 0.066 | 2.69 ± 0.058 | 2.85 ± 0.059 |
| WKYNNFLQKFEIAFHLT [YML103C/NUP188] | 2.36 ± 0.048 | 2.19 ± 0.032 | 2.01 ± 0.052 | 2.36 ± 0.027 |
| GLAPDARVLSNYLRQQC [PRE5] | 2.72 ± 0.19 | 2.11 ± 0.21 | – | 1.47 ± 0.28 |
| NQTIKEAKDAIIELENI [YIL149C/MLP2] | 3.02 ± 0.061 | 3.2 ± 0.07 | 3.06 ± 0.052 | 2.89 ± 0.065 |
| GTIKKIEQFAMRRNSKI [POP5] | 2.79 ± 0.065 | 2.73 ± 0.05 | 2.6 ± 0.059 | 2.69 ± 0.039 |
| ASLKHDNETKAMLINLI [RPN3] | 2.85 ± 0.28 | 3.21 ± 0.27 | 2.8 ± 0.13 | 2.77 ± 0.29 |
| NEEGDWSCIVVENWIID [ITC1] | 2.38 ± 0.074 | 2.48 ± 0.082 | 2.68 ± 0.12 | 2.95 ± 0.11 |
| VPSPTGEYVKEPEWVLE [RPO21] | 3 ± 0.11 | 3.07 ± 0.12 | 2.85 ± 0.28 | 3.15 ± 0.062 |
| ELSDNEENFEATRTLVA [YCG1] | 3.13 ± 0.12 | 3.09 ± 0.096 | 2.89 ± 0.14 | 3.04 ± 0.081 |
| SIYKYIHLNELLTNDES [SNF12] | 2.54 ± 0.063 | 2.71 ± 0.053 | 2.19 ± 0.071 | 2.63 ± 0.084 |
| PGTNGKVKKPLKYLSVE [PRE7] | – | 3.5 ± 0.14 | 3.15 ± 0.09 | 3.24 ± 0.12 |
